Measurements as given in patent US20080064079.

What was measured:
[1] = target: T1, Bz-Ala-Ala-Tyr-Arg-His-Ala-Gly
T1 chain: AAYRHAG

[2] = target: N-alpha-benzoylated peptides of SEQ ID NOs: 3-19

B1: trypsin variant Tn K60E, E151H, N143H, D189K (protein)
chain: IVGGYTCQENSVPYQVSLNSGYHFCGGSLINDQWVVSAAHCYESRIQVRLGEHNINVLEGNEQFVNAAKIIKHPNFDRKTLNNDIMLIKLSSPVKLNARVATVALPSSCAPAGTQCLISGWGHTLSSGVNHPDLLQCLDAPLLPQADCEASYPGKITDNMVCVGFLEGGKKSCQGDSGGPVVCNGELQGIVSWGYGCALPDNPGVYTKVCNYVDWIQDTIAAN
Which “yield of the transamidation product with Arg-His-Ala-Lys(6-CF)-OH (HPLC)” value [1] does the source give for B1 here?
Its value is “obtained in a yield of >99%”.

What about the “rate of reaction (initial rate of peptide consumption, HPLC)” value [2] of the same protein?
Its value is “has a strong preference for a cleavage site comprising L, F or Y in position P1, R or K in position P1′ and His in position P2′”.
